According to paper PMC12482441 (Autophagy Reports, 2025):

B1: His-MBP-tagged S. cerevisiae Atg17 (natural protein, UniProt Q06410 1-417, looked up)
chain: MNEADVTKFVNNARKTLTDAQLLCSSANLRIVDIKKKLSSWQLSISKLNFLIVGLRQQGKFLYTILKEGIGTKLIQKQWNQAVLVVLVDEMKYWQYEITSKVQRLDGIVNELSISEKDDTDPSKLGDYISRDNVNLLNDKLKEVPVIERQIENIKLQYENMVRKVNKELIDTKLTDVTQKFQSKFGIDNLMETNVAEQFSRELTDLEKDLAEIMNSLTQHFDKTLLLQDKKIDNDEREELFKVVQGDDKELYNIFKTLHEVIDDVDKTILNLGQFLQAKIKEKTELHSEVSEIINDFNRNLEYLLIFKDISNLIDSFKNSCTQDIQTTKELCEFYDNFEESYGNLVLEAKRRKDVANRMKTILKDCEKQLQNLDAQDQEERQNFIAENGTYLPETIWPGKIDDFSSLYTLNYNVKNP
B2: His-MBP-tagged S. pombe Atg17 (natural protein, UniProt O42651 1-411, looked up)
chain: MELLQQWTQQAKAALTQARQLCGDAHKFNEDAKTDLRNSIKQHQQLKELAKLTASQCTRLDSSTALIKQLLDLVQNYPTFNQLNVLHDRLESSLKRLRDCTLDPALGSEYTNLYAFVDDTALEDLKTRLRGVTDGVWNAFEKLAGLLEEDLCANYHKRLEAVSLDFLPPAYNDTAEELADLLLQVAQHYDQCSEALNIYDTLSDAEKKDLQEVLQSDSNHVPSVLTELRSGLDQTIHYFNAVQSYKSKVDSATSILEALAEELNKNQLTNQRHEAAHELMRAQTGLEIPQLAQELVQLERHYTHFAKAYTALLQEIHRRQTYENCVRSIVDEFVGRLEKEQQAEAKCRIDFFNQYGDYLPQTLWGAVTDPPLHFEIIEHQYTELPNVKVIPDKNDKKSKQREKSSTTASKR

Columns and labels:
[1] = biological target: His-MBP-tagged N. fulvescens Atg17 (N. fulvescens); assay: negative stain EM
negative stain EM = biological target: the molecule itself; assay: negative stain EM

Molecule	stoichiometry N [1]	stoichiometry N (negative stain EM)
His-MBP-tagged N. fulvescens Atg17 (natural protein)	2	
B1		2
B2		2
